Measured values as given in patent US20160200782A1 (MOERAE MATRIX, published 2016).

T1: IKKβ(h) (human, UniProt O14920 1-756, limits assumed)
T1 sequence (looked up): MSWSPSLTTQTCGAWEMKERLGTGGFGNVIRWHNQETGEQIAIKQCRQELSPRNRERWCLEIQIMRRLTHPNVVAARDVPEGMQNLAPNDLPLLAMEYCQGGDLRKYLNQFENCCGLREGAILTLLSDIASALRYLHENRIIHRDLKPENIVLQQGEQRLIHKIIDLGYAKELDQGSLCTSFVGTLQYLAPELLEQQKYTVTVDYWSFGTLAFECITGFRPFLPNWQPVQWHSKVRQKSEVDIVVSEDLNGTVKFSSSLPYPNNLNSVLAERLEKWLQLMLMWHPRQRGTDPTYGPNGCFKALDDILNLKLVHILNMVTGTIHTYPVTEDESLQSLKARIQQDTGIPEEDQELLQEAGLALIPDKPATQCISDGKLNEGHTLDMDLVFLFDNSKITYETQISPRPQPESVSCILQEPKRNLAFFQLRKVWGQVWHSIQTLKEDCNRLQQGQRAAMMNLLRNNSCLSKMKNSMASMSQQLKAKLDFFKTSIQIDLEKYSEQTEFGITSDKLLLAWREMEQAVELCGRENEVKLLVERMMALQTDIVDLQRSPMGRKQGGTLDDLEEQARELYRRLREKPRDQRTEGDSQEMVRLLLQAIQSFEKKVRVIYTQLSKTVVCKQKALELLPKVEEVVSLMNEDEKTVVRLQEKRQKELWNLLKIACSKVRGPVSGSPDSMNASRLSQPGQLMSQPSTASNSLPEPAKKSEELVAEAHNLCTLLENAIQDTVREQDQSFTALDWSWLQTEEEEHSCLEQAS

T2: TSSK1(h) (human, UniProt Q9BXA7 1-367)
T2 sequence (looked up): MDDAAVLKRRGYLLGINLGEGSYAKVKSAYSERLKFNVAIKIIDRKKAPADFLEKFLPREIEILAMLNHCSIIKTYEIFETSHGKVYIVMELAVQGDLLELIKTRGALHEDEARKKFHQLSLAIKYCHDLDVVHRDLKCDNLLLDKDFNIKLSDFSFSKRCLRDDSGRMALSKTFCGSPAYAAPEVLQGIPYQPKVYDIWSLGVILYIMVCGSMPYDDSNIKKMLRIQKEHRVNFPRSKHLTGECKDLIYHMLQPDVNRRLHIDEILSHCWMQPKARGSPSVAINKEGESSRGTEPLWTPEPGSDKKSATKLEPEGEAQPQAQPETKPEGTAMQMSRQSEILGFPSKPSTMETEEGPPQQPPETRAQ


Columns and labels:
Assay in all cases: cell-based or functional assay
GSK3β(h) = GSK3β(h) (human, UniProt P49841 1-420)
Hck(h) activated = Hck(h) activated (human, UniProt P08631 251-518, limits assumed)
IKKβ(h) = molecular target: T1, IKKβ(h)
LOK(h) = LOK(h) (human, UniProt O94804 1-348, limits assumed)
Met(M1268T)(h) = Met(M1268T)(h) (human, UniProt P08581-2 974-1408, limits assumed)
Mnk2(h) = Mnk2(h) (human, UniProt Q9HBH9 1-465, limits assumed)
NEK6(h) = NEK6(h) (human, UniProt Q9HC98 1-313)
ASK1(h) = ASK1(h) (human, UniProt Q99683 649-946, limits assumed)
Pim-3(h) = Pim-3(h) (human, UniProt Q86V86 1-326)
PKBγ(h) = PKBγ(h) (human, UniProt Q9Y243 1-479, limits assumed)
Pyk2(h) = Pyk2(h) (human, UniProt Q14289 1-1009, limits assumed)
Rsk2(h) = Rsk2(h) (human, UniProt P51812 1-740, limits assumed)
Tie2(Y897S)(h) = Tie2(Y897S)(h) (human, UniProt Q02763 771-1124, limits assumed)
TSSK1(h) = molecular target: T2, TSSK1(h)
VRK2(h) = VRK2(h) (human, UniProt Q86Y07 1-508, limits assumed)
CDK2/cyclinE(h) = CDK2/cyclinE(h) (human, UniProt P24941 1-298; P24941 1-298)
CDK7/cyclinH/MAT1(h) = CDK7/cyclinH/MAT1(h) (human, UniProt P50613 1-346; P51946 1-323; P51948 1-309)
CDK9/cyclin T1(h) = CDK9/cyclin T1(h) (human, UniProt P50750 1-372; O60563 1-726, limits assumed)
c-RAF(h) = c-RAF(h) (human, UniProt P04049 306-648, limits assumed)
cSRC(h) = cSRC(h) (human, UniProt P12931 1-536, limits assumed)
Ab1(Q252H)(h) = Ab1(Q252H)(h) (human, UniProt P00519 27-1130, limits assumed)
Note: test concentration or dose not given here.

Chain of VRK2(h) (Q86Y07 whole entry): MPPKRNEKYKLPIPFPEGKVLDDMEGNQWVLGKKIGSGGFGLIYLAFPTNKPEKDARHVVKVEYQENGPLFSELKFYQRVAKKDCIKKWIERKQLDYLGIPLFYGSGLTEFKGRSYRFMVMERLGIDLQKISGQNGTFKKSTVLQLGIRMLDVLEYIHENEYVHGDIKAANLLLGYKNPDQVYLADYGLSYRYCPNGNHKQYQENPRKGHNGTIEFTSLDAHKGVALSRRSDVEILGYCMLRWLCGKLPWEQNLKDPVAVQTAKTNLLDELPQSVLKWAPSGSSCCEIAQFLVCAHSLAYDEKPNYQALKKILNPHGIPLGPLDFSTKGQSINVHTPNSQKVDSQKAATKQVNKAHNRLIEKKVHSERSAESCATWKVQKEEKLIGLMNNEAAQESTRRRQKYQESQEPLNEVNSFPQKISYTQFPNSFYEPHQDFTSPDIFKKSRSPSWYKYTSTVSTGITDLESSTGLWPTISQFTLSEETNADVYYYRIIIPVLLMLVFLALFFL
Chain of Tie2(Y897S)(h) (Q02763 771-1124 Y897S limits assumed): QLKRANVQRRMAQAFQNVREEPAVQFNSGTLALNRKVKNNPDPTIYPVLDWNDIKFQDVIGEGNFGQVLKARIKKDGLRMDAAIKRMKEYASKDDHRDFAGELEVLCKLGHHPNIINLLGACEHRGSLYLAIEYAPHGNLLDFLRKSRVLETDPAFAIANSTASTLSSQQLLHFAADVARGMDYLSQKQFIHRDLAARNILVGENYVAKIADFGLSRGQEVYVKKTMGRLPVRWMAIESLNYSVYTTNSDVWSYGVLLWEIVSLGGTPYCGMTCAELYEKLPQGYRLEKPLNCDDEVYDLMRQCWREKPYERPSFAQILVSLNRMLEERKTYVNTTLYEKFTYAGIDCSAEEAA
Chain of CDK7/cyclinH/MAT1(h) (P50613 whole entry, chain 1 of 3): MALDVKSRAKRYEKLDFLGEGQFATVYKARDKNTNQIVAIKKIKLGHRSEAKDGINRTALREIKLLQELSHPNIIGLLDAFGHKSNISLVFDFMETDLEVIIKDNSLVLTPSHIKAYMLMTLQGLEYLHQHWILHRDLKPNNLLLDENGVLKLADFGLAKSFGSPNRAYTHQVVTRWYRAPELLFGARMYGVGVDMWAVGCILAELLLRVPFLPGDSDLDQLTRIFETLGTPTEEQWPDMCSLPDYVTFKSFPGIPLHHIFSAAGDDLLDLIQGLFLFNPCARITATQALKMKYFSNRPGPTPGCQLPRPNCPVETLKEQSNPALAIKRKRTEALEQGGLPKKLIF
Chain of CDK7/cyclinH/MAT1(h) (P51946 whole entry, chain 2 of 3): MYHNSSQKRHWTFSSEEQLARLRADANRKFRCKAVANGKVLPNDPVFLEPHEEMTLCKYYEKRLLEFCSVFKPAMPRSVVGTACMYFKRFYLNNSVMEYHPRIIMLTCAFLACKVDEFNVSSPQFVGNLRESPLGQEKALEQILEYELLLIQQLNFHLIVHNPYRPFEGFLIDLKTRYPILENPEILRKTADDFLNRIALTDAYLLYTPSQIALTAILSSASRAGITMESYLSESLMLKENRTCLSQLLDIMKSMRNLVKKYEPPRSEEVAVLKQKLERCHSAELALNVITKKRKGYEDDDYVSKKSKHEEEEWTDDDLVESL
Chain of CDK7/cyclinH/MAT1(h) (P51948 whole entry, chain 3 of 3): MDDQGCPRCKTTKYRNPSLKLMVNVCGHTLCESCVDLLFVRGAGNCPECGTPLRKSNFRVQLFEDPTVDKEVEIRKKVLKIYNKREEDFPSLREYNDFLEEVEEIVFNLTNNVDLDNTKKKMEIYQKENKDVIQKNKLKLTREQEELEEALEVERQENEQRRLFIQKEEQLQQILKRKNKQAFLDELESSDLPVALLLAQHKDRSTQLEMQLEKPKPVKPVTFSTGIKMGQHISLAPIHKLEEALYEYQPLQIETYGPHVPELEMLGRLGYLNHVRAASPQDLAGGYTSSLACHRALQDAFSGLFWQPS
Chain of Ab1(Q252H)(h) (P00519 27-1130 Q252H limits assumed): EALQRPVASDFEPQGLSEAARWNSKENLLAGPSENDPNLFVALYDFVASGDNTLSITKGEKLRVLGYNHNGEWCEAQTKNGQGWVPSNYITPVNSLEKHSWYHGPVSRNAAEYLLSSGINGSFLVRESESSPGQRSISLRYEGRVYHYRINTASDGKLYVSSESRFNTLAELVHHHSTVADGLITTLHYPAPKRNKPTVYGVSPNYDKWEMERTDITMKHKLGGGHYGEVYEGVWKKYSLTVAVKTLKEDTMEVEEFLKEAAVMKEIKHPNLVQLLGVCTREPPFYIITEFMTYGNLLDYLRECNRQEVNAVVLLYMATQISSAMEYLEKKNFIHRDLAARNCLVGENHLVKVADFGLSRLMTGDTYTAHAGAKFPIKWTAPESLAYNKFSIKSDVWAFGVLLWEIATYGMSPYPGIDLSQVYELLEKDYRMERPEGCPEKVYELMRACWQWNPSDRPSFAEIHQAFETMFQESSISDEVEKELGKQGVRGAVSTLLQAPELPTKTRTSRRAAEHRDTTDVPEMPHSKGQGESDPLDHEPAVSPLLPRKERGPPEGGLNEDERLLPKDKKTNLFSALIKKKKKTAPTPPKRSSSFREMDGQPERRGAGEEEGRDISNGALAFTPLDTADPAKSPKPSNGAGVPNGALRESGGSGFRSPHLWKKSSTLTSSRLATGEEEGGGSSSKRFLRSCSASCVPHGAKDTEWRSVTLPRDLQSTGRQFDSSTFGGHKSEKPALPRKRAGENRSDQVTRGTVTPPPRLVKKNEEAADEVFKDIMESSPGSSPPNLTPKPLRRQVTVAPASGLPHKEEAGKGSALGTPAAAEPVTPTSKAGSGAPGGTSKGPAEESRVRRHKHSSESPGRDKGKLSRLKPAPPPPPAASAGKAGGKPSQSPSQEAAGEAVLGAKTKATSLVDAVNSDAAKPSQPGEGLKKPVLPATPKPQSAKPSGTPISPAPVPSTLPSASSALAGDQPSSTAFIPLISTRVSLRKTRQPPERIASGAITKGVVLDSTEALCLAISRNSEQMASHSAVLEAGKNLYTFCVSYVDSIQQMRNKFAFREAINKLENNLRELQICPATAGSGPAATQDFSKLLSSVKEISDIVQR
Chain of Rsk2(h) (P51812 whole entry): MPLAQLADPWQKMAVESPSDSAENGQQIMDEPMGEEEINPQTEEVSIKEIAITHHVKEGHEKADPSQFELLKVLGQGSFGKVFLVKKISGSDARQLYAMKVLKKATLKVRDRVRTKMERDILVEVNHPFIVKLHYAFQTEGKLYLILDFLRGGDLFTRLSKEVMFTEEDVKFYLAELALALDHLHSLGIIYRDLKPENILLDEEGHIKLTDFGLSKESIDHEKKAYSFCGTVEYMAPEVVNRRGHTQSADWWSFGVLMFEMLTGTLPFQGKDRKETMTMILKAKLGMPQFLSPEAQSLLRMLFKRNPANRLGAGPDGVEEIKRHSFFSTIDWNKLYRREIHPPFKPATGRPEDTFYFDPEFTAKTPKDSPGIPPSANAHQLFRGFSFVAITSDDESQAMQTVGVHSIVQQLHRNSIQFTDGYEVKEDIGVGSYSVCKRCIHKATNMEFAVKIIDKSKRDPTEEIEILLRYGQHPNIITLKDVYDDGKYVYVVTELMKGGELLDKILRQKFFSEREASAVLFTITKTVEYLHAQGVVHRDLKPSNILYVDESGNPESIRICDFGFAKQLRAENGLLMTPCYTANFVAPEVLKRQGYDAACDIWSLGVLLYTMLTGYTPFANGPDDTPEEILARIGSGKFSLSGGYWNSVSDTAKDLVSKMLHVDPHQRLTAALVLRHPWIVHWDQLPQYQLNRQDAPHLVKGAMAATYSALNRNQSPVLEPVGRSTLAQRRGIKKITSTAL
Chain of CDK9/cyclin T1(h) (P50750 whole entry, chain 1 of 2): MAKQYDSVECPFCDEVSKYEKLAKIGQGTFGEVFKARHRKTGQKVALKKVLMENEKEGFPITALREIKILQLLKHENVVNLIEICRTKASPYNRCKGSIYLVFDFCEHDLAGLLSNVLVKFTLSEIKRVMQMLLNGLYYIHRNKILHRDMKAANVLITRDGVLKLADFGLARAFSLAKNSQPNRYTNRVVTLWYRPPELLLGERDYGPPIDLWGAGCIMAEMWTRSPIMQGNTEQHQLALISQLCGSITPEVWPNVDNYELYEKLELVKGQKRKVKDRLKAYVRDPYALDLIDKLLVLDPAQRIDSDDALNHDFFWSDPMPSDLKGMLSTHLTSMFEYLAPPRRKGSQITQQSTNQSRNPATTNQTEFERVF
Chain of CDK9/cyclin T1(h) (O60563 whole entry, chain 2 of 2): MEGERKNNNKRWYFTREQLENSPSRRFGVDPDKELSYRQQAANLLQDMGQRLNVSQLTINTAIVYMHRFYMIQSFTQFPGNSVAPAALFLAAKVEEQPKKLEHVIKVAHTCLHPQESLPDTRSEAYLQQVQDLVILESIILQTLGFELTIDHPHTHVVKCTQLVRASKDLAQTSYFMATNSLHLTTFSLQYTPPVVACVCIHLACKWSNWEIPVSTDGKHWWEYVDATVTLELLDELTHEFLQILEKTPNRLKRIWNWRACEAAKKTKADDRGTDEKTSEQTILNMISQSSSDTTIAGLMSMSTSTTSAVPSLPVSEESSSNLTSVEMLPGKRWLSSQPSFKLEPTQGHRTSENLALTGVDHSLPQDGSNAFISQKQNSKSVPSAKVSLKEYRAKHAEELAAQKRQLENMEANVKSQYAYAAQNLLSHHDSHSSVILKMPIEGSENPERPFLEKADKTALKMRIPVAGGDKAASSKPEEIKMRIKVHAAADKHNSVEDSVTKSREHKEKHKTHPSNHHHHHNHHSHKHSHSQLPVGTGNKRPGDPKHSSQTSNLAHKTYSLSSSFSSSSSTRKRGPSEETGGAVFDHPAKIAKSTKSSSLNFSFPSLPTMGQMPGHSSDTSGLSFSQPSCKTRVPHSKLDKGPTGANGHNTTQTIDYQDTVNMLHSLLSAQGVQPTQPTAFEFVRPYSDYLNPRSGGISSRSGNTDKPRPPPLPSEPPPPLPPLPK

Row | Binder | % activity (GSK3β(h)) [%] | % activity (Hck(h) activated) [%] | % activity (IKKβ(h)) [%] | % activity (LOK(h)) [%] | % activity (Met(M1268T)(h)) [%] | % activity (Mnk2(h)) [%] | % activity (NEK6(h)) [%] | % activity (ASK1(h)) [%] | % activity (Pim-3(h)) [%] | % activity (PKBγ(h)) [%] | % activity (Pyk2(h)) [%] | % activity (Rsk2(h)) [%] | % activity (Tie2(Y897S)(h)) [%] | % activity (TSSK1(h)) [%] | % activity (VRK2(h)) [%] | % activity (CDK2/cyclinE(h)) [%] | % activity (CDK7/cyclinH/MAT1(h)) [%] | % activity (CDK9/cyclin T1(h)) [%] | % activity (c-RAF(h)) [%] | % activity (cSRC(h)) [%] | also measured
1 | FAKLAARLYRKALARQLGVAA [MMI-0300] | 205 | 82 | 84 | 37 | 255 | 89 | 82 | 80 | 80 | 20 | 47 | 51 | 83 | 79 | 161 | 94 | 65 | 91 | 107 | 26 | % activity (Ab1(Q252H)(h)): 82%
2 | KAFAKLAARLYRKALARQLGVAA [MMI-0400] | 202 | 81 | 84 | 18 | 265 | 86 | 85 | 69 | 80 | 41 | 34 | 38 | 87 | 79 | 185 | 83 | 47 | 235 | 102 | 14 | % activity (Ab1(Q252H)(h)): 98%
